The record followed here is patent US11827701B2, “IL-6 binding molecules” (argenx BV, priority 2012, dated 2023).

Holding throughout (format): binding
Test [1] has as its target T1, bacterially produced human IL-6 (Homo sapiens, UniProt P05231).
T1 construct: His
Kind of test: Surface plasmon resonance (Biacore), bacterially produced human IL-6 coated on CM5 chip. As for the experimental part: (§1) The binding kinetics of IL-6-specific Fabs that were able to cross-compete with the B-E8 antibody was assessed using surface plasmon resonance (Biacore). Specifically, biotinylated (prokaryotic) IL-6 was captured on a streptavidin biacore sensor chip (CM5-SA) and different concentrations of purified Fabs were injected during 3 minutes following by a 5 minute wash with buffer. From the washing phase the off-rate (kd) was determined, while from the injection phase the on-rate (ka) was calculated using the concentration and off-rate as parameters. […] The binding kinetics of antagonistic purified Fabs (Table 3) and periplasmic fractions of Fab-expressing bacteria (Table 4) were also evaluated by surface plasmon resonance (Biacore) using both bacterially and eukaryotically produced human IL-6 directly coated on a CM5 chip. The Fabs tested had off-rates between 6×10^−4 and 2×10^−5 s^−1.
(§2) VL chain shuffling was used to improve the affinity of the Fabs 17F10, 18C7, 18C9, 18C11, 20A4, 29B11, 16D2 and 28A6. In this method, the heavy chain of these clones (as a VHCH1 fragment) was reintroduced into the primary phagemid-light chain library (see Example 1). Affinity selections were performed to select for chain shuffled Fabs with an improved affinity for IL-6. The binding kinetics of chain shuffled Fabs were evaluated by surface plasmon resonance (Biacore) using both bacterially and eukaryotically produced human IL-6, and cynomolgus monkey IL-6 (Tables 5-7). The VH and VL amino acid sequences of exemplary IL-6-specific Fabs selected by the VL chain shuffling method are set forth in Table 14 below.
(§3) VH chain shuffling was also used to improve the affinity of the Fab 24D10. In this method, the light chain of 24D10 was reintroduced into the primary phagemid-heavy chain library (see Example 1) and selected using an off-rate assay. In this type of selection, the phage were allowed to bind to antigen on a substrate for 1.5 to 2 hours. At round 2, after 15 washes with PBS-Tween, an additional wash was performed with the presence of excess soluble IL-6. […] This procedure avoids re-binding of such phage to the coated target. […] The binding kinetics of chain shuffled Fabs and the benchmark antibodies, BE8 and GL18, were evaluated by surface plasmon resonance (Biacore) using both bacterially and eukaryotically produced human IL-6 (Tables 8 and 9). The VH and VL amino acid sequences of exemplary IL-6-specific Fabs selected by the VH chain shuffling method are set forth in Table 14 below. […]

The target in test [2] is T2, eukaryotically produced human IL-6 (Homo sapiens, UniProt P05231).
T2 construct: purchased Humanzyme HZ-1044; host or cells: Human Embryonic kidney cells
T2 sequence (P05231 30-212): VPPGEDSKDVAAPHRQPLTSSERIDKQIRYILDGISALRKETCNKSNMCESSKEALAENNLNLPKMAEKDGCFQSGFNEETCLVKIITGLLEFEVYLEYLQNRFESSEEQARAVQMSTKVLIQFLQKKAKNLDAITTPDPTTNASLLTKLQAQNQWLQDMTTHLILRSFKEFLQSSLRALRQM
In words: Surface plasmon resonance (Biacore), eukaryotically produced human IL-6 coated on CM5 chip. Particulars: for Koff eukIL-6: purified chain-shuffled Fabs. As for the experimental part:
as §1, §2, §3

For test [3], the target named is biotinylated (prokaryotic) IL-6 (Homo sapiens, UniProt P05231). In words: Surface plasmon resonance (Biacore), biotinylated IL-6 captured on streptavidin sensor chip. Particulars: purified Fab. How it is done: as §1
Sequence of biotinylated (prokaryotic) IL-6 (P05231 30-212): as above
On the technique in general: In SPR one partner is held on a chip, and binding of the other changes the refractive index at the surface.

A further test addresses T3, cynomolgus monkey IL-6 (Macaca fascicularis, UniProt P79341).
T3 construct: His
In words: Surface plasmon resonance (Biacore), cynomolgus monkey IL-6. Particulars: for Koff HIS-cyIL-6: purified chain-shuffled Fabs; for KA / ka / kd: cy/cyno, periplasmic fractions. As for the experimental part:
as §2

The mark [4] stands for this setting: Bact, purified 24D10 chain-shuffled Fabs.
Where [5] appears, read: Euk IL-6, purified 24D10 chain-shuffled Fabs.
Setting [6] is: bact, periplasmic fractions, 28A6 chain-shuffled.
The mark [7] stands for this setting: euk, periplasmic fractions, 28A6 chain-shuffled.
Setting [8] is: bact, periplasmic fractions, 29B11 chain shuffled.
Setting [9] is: euk, periplasmic fractions, 29B11 chain shuffled.

T1 sequence (P05231 30-212): as above
T3 sequence (P79341 28-212): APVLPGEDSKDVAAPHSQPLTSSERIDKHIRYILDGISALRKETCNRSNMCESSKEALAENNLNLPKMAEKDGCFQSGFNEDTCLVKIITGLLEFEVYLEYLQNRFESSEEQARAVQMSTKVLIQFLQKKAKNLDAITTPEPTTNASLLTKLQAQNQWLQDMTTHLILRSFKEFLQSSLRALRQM

B1: 24D10: antagonistic IL-6-specific Fab clone, parental of 61H7 (antibody, listed as Lama glama, V domains shown)
VH: QLQVVESGGGLVQPGGSLRLSCAASGFTFSSYAMSWVRQAPGKGPEWVSRISSGGGSTSYADSVKGRFTISRDNAKNTLYLQMNSLKPEDTAVYYCANRAGWGMGDYWGQGTQVTVSS
VL: QTVVTQEPSLSVSPGGTVTLTCGLSSGSVTASNYPGWFQQTPGQAPRALIYSTNDRHSGVPSRFSGSISGNKAALTITGAQPEDEADYYCALDIGDITEFGGGTHLTVLG
Consider B1, for which, in test [1] (setting [4]), the ka was 210000 M⁻¹ s⁻¹ and the kd came out at 0.0001 s⁻¹. In addition, in test [2] (setting [5]), the ka amounted to 250000 M⁻¹ s⁻¹ and the kd amounted to 0.0001 s⁻¹. For the same molecule, in test [2] (periplasmic fractions ('pur' = purified Fab), IL-6 form not stated), the binding is recorded as 301. Further, in test [3], the KA was found to be 3.7e+09 M⁻¹, the Rmax is 40.6 RU, the ka was determined as 62700 M⁻¹ s⁻¹ and the kd amounted to 1.69e-05 s⁻¹. In addition, the “off-rates (range)” value in test [3] is ~10^−5 s^−1.

B2: 41B5: light chain shuffled Fab of parental 17F10 (antibody, V domains shown)
VH: EVQLQESGPGLVKPSQTLSLTCTVSGGSIATSYYAWSWIRQPPGKGLEWMGVIDYDGDTYYKPSLKSRTSISRDTSKNQFSLQLSSVTPEDTAVYYCARAGLGDSYYLGTYYAMDYWGKGTLVTVSS
VL: QSALTQPPSMSGTLGKTLTISCNGTSSDIGSGDYVSWYQQLPGTTPKLLIEGVTTRASGIPDRFSASKSDNTASLTISGLQSEDEATYYCASYRETNNVVFGGGTHLTVLS
For B2, the “Koff eukIL-6” value in test [2] amounted to 0.0002 s⁻¹. Further, the “Koff HIS-cyIL-6” value with cynomolgus monkey IL-6 amounted to 0.00017 s⁻¹.

B3: 17F10: antagonistic IL-6-specific Fab clone from immunized llama (antibody, listed as Lama glama, V domains shown)
VH: EVQLQESGPGLVKPSQTLSLTCTVSGGSIATSYYAWSWIRQPPGKGLEWMGVIDYDGDTYYKPSLKSRTSISRDTSKNQFSLQLSSVTPEDTAVYYCARAGLGDSYYLGTYYAMDYWGKGTLVTVSS
VL: QAGLTQPPSVSGSPGKTVTISCAGTTSDVGTGNFVSWYQQLPGMAPKLLIYDVNKRASGIADRFSGSKSGNTASLTISGLQSEDEADYYCASYRSLNNVVFGGGTHLTVLG
Regarding B3, in test [1] (purified chain-shuffled Fabs), the “Koff HIS-huIL-6” value amounted to 0.00088 s⁻¹. Further, the “Koff eukIL-6” value in test [2] was 0.00077 s⁻¹. The “Koff HIS-cyIL-6” value in the test with cynomolgus monkey IL-6 was determined as 0.00078 s⁻¹.

B4: 55A11d: 28A6 chain-shuffled Fab, periplasmic fraction (antibody, V domains shown)
VH: QVQLVESGGGLVQPGGSLRLSCAASGFTFSNYYMTWVRQAPGKGLEWVSSIYSFSGDTAYADSVKGRFTISRDNAKNTLYLQMNSLKSEDTAVYYCTRNLGGVVVTTNGYDYWGQGTQVTVSS
VL: DIQMTQSPSSLPTSLGDSVTITCQASQSISDELSWYQQKPGQTPKLLIYGASRLQTGVPSRFSGRGSGTSFTLTISGLEAEDLATYYCLQGYSWPFMFGQGTKVELK
In test [1] (setting [6]), B4 came in with a KA of 2.78e+09 M⁻¹, a ka of 188000 M⁻¹ s⁻¹ and a kd of 6.76e-05 s⁻¹. Also, in test [2] (setting [7]), the KA was found to be 1.59e+09 M⁻¹, the ka came out at 101000 M⁻¹ s⁻¹ and the kd was 6.36e-05 s⁻¹. Besides, in the test with cynomolgus monkey IL-6 (28A6 chain-shuffled), the KA was found to be 1.77e+09 M⁻¹, the ka amounted to 144000 M⁻¹ s⁻¹ and the kd is 8.17e-05 s⁻¹.

B5: 55C11f: 28A6 chain-shuffled Fab, periplasmic fraction (antibody, V domains shown)
VH: QVQLVESGGGLVQPGGSLRLSCAASGFTFSNYYMTWVRQAPGKGLEWVSSIYSFSGDTAYADSVKGRFTISRDNAKNTLYLQMNSLKSEDTAVYYCTRNLGGVVVTTNGYDYWGQGTQVTVSS
VL: DIQLTQSPSSLSASLGDSVTITCQASQSISDELSWYQQKPGQTPKLLIYGASKLQTGVPSRFSGSGSGTSFTLTISGLEAEDLATYYCLQGYRWPFMFGQGTKVELK
Take B5: in test [1] (setting [6]), the KA is 3.29e+09 M⁻¹, the ka worked out at 228000 M⁻¹ s⁻¹ and the kd is 6.94e-05 s⁻¹. In test [2] (setting [7]), this molecule had a KA of 3.1e+09 M⁻¹, a ka of 201000 M⁻¹ s⁻¹ and a kd of 6.47e-05 s⁻¹. In the test with cynomolgus monkey IL-6 (28A6 chain-shuffled), the KA stood at 3.2e+09 M⁻¹, the ka was 285000 M⁻¹ s⁻¹ and the kd came to 8.9e-05 s⁻¹.

B6: 55C1a: 29B11 chain shuffled Fab, periplasmic fraction (antibody, V domains shown)
VH: EVQLVESGGGLVQPGGSLRLSCAASGFTFSSYAMSWVRQAPGKGLEWVSRISSGGISTYYADSVKGRFTISRDNAKNTLYLQMNSLKPEDTAVYYCVRYAWGVQWAFDFWGQGTQVTVSS
VL: ALNFMLTQPPSVSGSPGKTVTISCAGTSSDVGYGNYVSWYQQLPGTAPKLLIYNVNKRASGITDRFSGSKSGNTASLTISGLQSEDEADYYCASYRTGDNAAFGGGTKLTVLG
Regarding B6, the figures for the KA (in test [1] (setting [8]); in test [2] (setting [9]); with cynomolgus monkey IL-6 (29B11 chain shuffled)) were 7.6e+09 M⁻¹, 5.55e+09 M⁻¹ and 1.25e+09 M⁻¹, respectively. For the same molecule, the ka in test [1] (setting [8]) was 561000 M⁻¹ s⁻¹; in test [2] (setting [9]) it was 440000 M⁻¹ s⁻¹; in the test with cynomolgus monkey IL-6 (29B11 chain shuffled), 475000 M⁻¹ s⁻¹. Also, the kd in test [1] (setting [8]) was found to be 7.38e-05 s⁻¹; in test [2] (setting [9]), 7.93e-05 s⁻¹; with cynomolgus monkey IL-6 (29B11 chain shuffled), 0.000381 s⁻¹.

B7: 48C10: 29B11 chain shuffled Fab, periplasmic fraction (antibody, listed as Lama glama, V domains shown)
VH: EVQLVESGGGLVQPGGSLRLSCAASGFTFSSYAMSWVRQAPGKGLEWVSRISSGGISTYYADSVKGRFTISRDNAKNTLYLQMNSLKPEDTAVYYCVRYAWGVQWAFDFWGQGTQVTVSS
VL: AQSVLTQPPSVSGSPGQTVTISCAGTSEDVGYGNYVSWYQQLPGMAPKLLIYDVNKRASGIADRFSGSKSGNTASLTISGLQSEDEADYYCASYRRTIDNIFGGGTHLTVLG
For the molecule B7, in test [1] (setting [8]), the KA was found to be 1.43e+09 M⁻¹, the ka was 262000 M⁻¹ s⁻¹ and the kd was found to be 0.000184 s⁻¹. In the test with cynomolgus monkey IL-6 (29B11 chain shuffled), this molecule gave a KA of 4.1e+08 M⁻¹, a ka of 180000 M⁻¹ s⁻¹ and a kd of 0.00044 s⁻¹.

B8: 47C2 (R4): 29B11 chain shuffled Fab, periplasmic fraction (antibody, listed as Lama glama, V domains shown)
VH: EVQLVESGGGLVQPGGSLRLSCAASGFTFSSYAMSWVRQAPGKGLEWVSRISSGGISTYYADSVKGRFTISRDNAKNTLYLQMNSLKPEDTAVYYCVRYAWGVQWAFDFWGQGTQVTVSS
VL: ALSYDLTQPPSVSGSPGKTVTISCAGTSSDVGYGNYVSWYQQLPGMAPKILIYDVNKRASGIADRFSGSKSGNTASLTISGLQSEDEADYYCASYRRGETIVFGGGTHLTVLG
As for B8, the KA came out at 3.56e+09 M⁻¹ in test [1] (setting [8]), 3.54e+09 M⁻¹ in test [2] (setting [9]) and 6.48e+08 M⁻¹ in the test with cynomolgus monkey IL-6 (29B11 chain shuffled). Further, the ka in test [1] (setting [8]) was 1.12e+06 M⁻¹ s⁻¹; in test [2] (setting [9]), 849000 M⁻¹ s⁻¹; with cynomolgus monkey IL-6 (29B11 chain shuffled), 851000 M⁻¹ s⁻¹. For the same molecule, the kd in test [1] (setting [8]) was 0.000315 s⁻¹; in test [2] (setting [9]), 0.00024 s⁻¹; with cynomolgus monkey IL-6 (29B11 chain shuffled), 0.00131 s⁻¹.

B9: 55E2b: 29B11 chain shuffled Fab, periplasmic fraction (antibody, V domains shown)
VH: EVQLVESGGGLVQPGGSLRLSCAASGFTFSSYAMSWVRQAPGKGLEWVSRISSGGISTYYADSVKGRFTISRDNAKNTLYLQMNSLKPEDTAVYYCVRYAWGVQWAFDFWGQGTQVTVSS
VL: AQSVLTQPPSVSGSPGKTVTISCAGTSSDVGYGNYVSWYQQLPGMAPKLLIYDVNKRASGIADRFSGSKFANTASLTISGLQSEDEADYYCASYKRGDNAVFGGGTKLTVLG
As to B9, the KA is 7.28e+09 M⁻¹ in test [1] (setting [8]), 6.34e+09 M⁻¹ in test [2] (setting [9]) and 1.39e+09 M⁻¹ in the test with cynomolgus monkey IL-6 (29B11 chain shuffled). Moreover, the ka was found to be 489000 M⁻¹ s⁻¹ in test [1] (setting [8]), 414000 M⁻¹ s⁻¹ in test [2] (setting [9]) and 468000 M⁻¹ s⁻¹ with cynomolgus monkey IL-6 (29B11 chain shuffled). Also, the kd in test [1] (setting [8]) is 6.72e-05 s⁻¹; in test [2] (setting [9]), 6.53e-05 s⁻¹; with cynomolgus monkey IL-6 (29B11 chain shuffled), 0.000336 s⁻¹.
